We go through 33 sequences from the NTF2 design screens of Basanta et al. (2020).

A short description of the data set: protease stability score; higher = more stable; yeast display proteolysis, trypsin and chymotrypsin.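 Further: relative to predicted unfolded state with 0 unfolded-like and 1 meaning tenfold more protease.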
Regarding “DDSERILRWFWNVLAESIETGDEEVMKELFDPNTRIHVNGQDHIGMEHRTRLASEMRITLYRVDLKRIHEVDGRIVLHIEVETHGTINGRLEHSKVRVQIIVSKIDGKWRMHQVEVK”, the protease stability score came to 1.38. “DDSHKKLKHAFELLLHALRTGDEDLLKELIDPEVRILFNGKIFHGREWWEHLLRHIRFKDIHIKNIDIQGDKLRVDSRLHIIIDGRHVDFEAEFYIVKVDGRWFTEEIVIK” had a protease stability score of 2.21.

The sequence “DDSQDIAKTMVDIITKNSLTGDEENFEHLVDPDARLTVNGVELHGREDVVRWMKHARIHDTRVRHIRVQGNKIEVDSESRVDINGKENEMKFKLIFIKVNGQWHIRDIEIR” gave a protease stability score of 2.13.

In the case of “DDSRRVAEEVSELIKILYDTGDWRHLHELLDPHVRIEIGDKEFHGRDTWLREMIRADHVEYHTHDYRSQGNKIFIRGHLIVHINGRTHKEDVRLHVHKVDGQWIIDSIEMK”, the protease stability score came out at 1.01. “DDSSELLRKLLEELLRAYKTGDFDTLIEFFDPDVKLEFNGREVHGMDHFISEHRHFIRRFPGIRIHIDDVKWHTQGDKAQLHMDGTEDFDGKRRRVELIFIIEKFDGRWFFSSIRWHNI” registered a protease stability score of 1.53.

In turn, “DDTDKLLKEYLEMEMEMIRTGNEHIFTRLADPNVRIEQGDKHFHGREEYKRLMEEHFEKIQHAKIEFRVHDIKRIGDKMYIRGEFIVHVGEYHESQDRIFINRKIDGRWYVEEIIIR” displayed a protease stability score of 1.25.

“DDTDRRSRILTELSLNLFRTGDWKLFEEMADPHARMSMDVDGKELRHHGRESVSHVWHRQLFELGVDHYDLHDVKVIDGVMHVFSEVKVGDKRLELLIVAEKVNGKWHIREVHIKII” had a protease stability score of 0.202. In turn, “DDTEDLATELSKIIRTVLRTGDWHTLRELADPNMRLNVNGQERHGMDLVREIHLNAGWQRVTVIIRHLHIDENEMHLETETRYDGQKHRVHVHVKKINGRWVIDFIIIH” returned a protease stability score of 1.09. The sequence “DDTKKHMEKIFRLMIEWWETGDFDRMENNADPHVRAHIGDKEIHGREEMIKLIRELIEELGIDHEETEEVRVYDGRIHVHSRLHINGKEIEVQLHSQVVDGRIESFELHVITR” returned a protease stability score of 1.05. Regarding “DDTLRDLFHLIELFHKALKTGDEQKMRENLDPHAKFDWDGRDYVGMEEVVKYVVEARIESTFHIHSVRKIGNKLDVDGTFSLEVDYNGKKEDIHSRQHHFIYKVDGQWIIKRIIIK”, the protease stability score worked out at 0.537. For “DDTRELSKHWHERWLHAHETGDEELLLSLLDPHVRLEVGDKHLIGRDKLKWHMEEEIEFFKNAKLHVRRVSIQGNKIEMELEVRIDGVRHEVHIHYDIIDGRITRFEVRIV”, the protease stability score is 0.21.

“DDVEKDARWLVDELIHLLETGDEDTLLKLADPNTRIEIGDFHFHGRRDLKRILHEMRVKLDHLRIEHLDAQGEWIYIQFHYHQTINVNGRVVHEQRRVELESIKINGRWTIHFFKVK” showed a protease stability score of 1.28. On to “DDVEKLTREWFEKYLHTIQTGDEHSFERLADPNVRLHAENREYHGMEVISERLREEQDKFKGLRITHFHITHIINNEDEMYVDGRIVVEWNGQKEILTVHLIAFKVNGKWILKRYVKK”, for which the protease stability score was found to be 1.78. Then “DDVERIVKHMLELHIQSWLTGNEHLMHRLADPNVRSHIGDKERVGRHELSEMMIKHWEHLRIHRVEIRDSDVVGEKAESNTHVVVIFNGVEVRFDVRIEVVSINGRLHSSHIIIE”, with -0.029; and “DDVHEDATRAIKILKHNLETGDEDKLMTMMDPNVRFEDGNKHAHGREQTVQVLLEIIEKLGVSKFSHEIKDLKIVDGKLHLHGTLKVDGKTVDLEVVSLKINGRWLIKSIHLH”, with 1.19; and “DDWEEEVHKFSRLFIKSVETGDEDTLHKFADPNVMLHQGDKEYHGREMFVRWSNELLRHLGVSKVRARMHDDKAYNGVVHLDLENRFNGRTVRIEVRIEKINGKWLMTEVRIE”, with 0.622.

Consider “DDWEEILREMIERWLKIFLTGDEEQLQRLADPDTRLNFNGREHHGMETLRRWRHRYEEEMRVRRINVKHEEFQGEKIRMDTELHTEVNGVKIITRTELIFIIINGRIKEVEIRVK”, for which the protease stability score amounted to 0.853. Take “DDWEEVLKDFLKKYFEALHTGNEELFLLMLDPHVKFDWNGQKMVGREKEIETLRREIKSAGVTRIERELEIKDTRLVDGRLRIDLSIHLNFNGRKFEIDVELHLNKINGRWEIESIKYR”: the protease stability score turned out to be 1.15. In turn, “DDWEEVTRRSVEEFIRAIDTGDEDFLRTMVDPDTRVEINGVEVHGMEELMRLFSEHIKKVKNIRFHLEIRHVESQGDKIRIEGHEESNVDGRHRKKSTEMHWIKVDGRWFLHRVILR” displayed a protease stability score of 1.39.

For the sequence “DDWEKLYEELTRLWLKLLITGDEEILIKLMDPHYRYHQGDKELHGRESYAEEVRREYEHARVKIHVERIHVFENHVEVNGELKIEINGRHYSIRTRIHLNIVNGKIKSIEIRTD”, the protease stability score came to 1.39. Sequence “DDWERLYLHLARLWFELILTGDEETIDKMVDPHTRLEIGDFESHGREELRYLFHHMRSHEIRIRSFDTYGDKAIIDGEIDTIINGRRMIVKIRLHVIIINGRVHSIKVEHE” gave a protease stability score of 1.08. In turn, “DDWHEEMREMLELLLRALFTGDEKHLVENLDPNVKIIFDGKDLHGRRDASKLIHEYGVDHITRHKIHDSKFFNGRLDVDGIFDQTVNGRREEVHRRIILLKFDGRWWIHRIEIR” came in with a protease stability score of 1.63. The sequence “DDWHEILKHHFDNEVESILTGDEDSIKKMIDPHVRLEVNGREVHGMEEFARVMIEIRFRRIDLRERDIFNGVLHLRLEVDWEYGDKRFETEEEVVYFKVNGRWILESMRVR” displayed a protease stability score of 1.26. Then “DDWLEDTKRLLEEFRQAINTGDEELLKILFDPHVRMNIDGVELHGRSVLEHFLERYDVIKVRRHHITDLKFQGNYLIIHLKTDIQIDIGDKHYKEEREVEMVVEKVNGRWIIRLMTER”, with 1.4. Then “DDYDHITELALREIERVLHTGDEEDLRRMIDPHVRIDIDGKDIHGWENLFKHIEEERRRFPNLQIDWELKDTRKQGDKIILHGQIHIQQGDKEIERDFTIKAVKINGQWIVKTFHIR”, with 1.63; and “DDYEKDDKHFLNVFLHMLETGDWEKLEKLADPRVRQDVDGVEYHGMEEAVEVWHRLRHKFKGLTLREVTIHDIRTIDGKIDLDVEFHFDFNGREISRRVIIIVDKINGRWELKSMKEK”, with 0.074. For the sequence “DDYEKSSKVVWQILVRALETGDEEELRDLFDPHVRIQIGEFHFHGWETVHEHMRRADHIIVRDSKSRDIDHQGNKVILHVDLHIEFTYNGVERSTTFRSNMIMVKVNGKWVIEKIHLQ”, the protease stability score was 1.55. Then “DEADRFREFAKRLYLEKSNTGDWEELIRLFDPHARYEYGDKEMHGRDTIDFLREMLGIDRIQLRHVNDHSVDLQGDKIHIDGTVVEEWNGQEYRSRVILILRKVDGRWYLETMHVD”, with 0.409. The sequence “DEAEEHMRRYSELMMKSFLTGDEHTLRKLADPHTKLIFNGKELHGREEVARVFTWSREELGVDHQDVRHVSVRLVDGRVHVDIILEVNVGDKRFQVHIHLTILKYDGRWFVESVHIEIR” came in with a protease stability score of 0.285. On to “DEAHEWLKTLADLFFHWMLTGDFEHWIDYLDPDAKIEFEGRSNHGRENIYQLLLELKQEIRVRDYELKDVRIQGEKLLLNVHLHGHIGDKEIRTDTVLRLRVVDGRLKEVHIEIR”, for which the protease stability score worked out at 1.52.

In turn, “DEAQEIVEFVFKILAEFQETGDEDSLKHLLDPNVRILQGNKELHGRDQNIKRLREELDRFGVDKFRVELRLEHVTIIDGRLHLDMRLNLDVNGVEIRLEVHFVLIKVDGQWSIHEVRFH” had a protease stability score of 1.61. “DEARVIFEEFIRQLLHAIRTGDFDLYRHLADPHVQVEIGDKVFWGREVITEFEDDLLRRMGVNHVDMRIRIFEIIDGRIHIVGEHRIDVNGRDEHIDTRVLVHKVDGRWVLRRERRT” gave a protease stability score of 0.647. In the case of “DEATEAWRVVVELIKRANETGDEETRSENMDPETRMSIDGVDFIGREEVIKHVHKVKNMRIKHVEINDVRIQGDKIHVRGTLHGTVNGRETRIDVVLYVWKINGQWIIHSIEFI”, the protease stability score was 1.5.
